“Also recorded” adds a separate entry of the source.
Test system: RBC
Assay: Binding to fresh RBC diluted 2500 times, flow cytometry
Settings: 20 μg ml^−1, FIG. 6f
Experimental: Similarly, fresh RBC cell was diluted 2500 times, then it was incubated with 20 μg ml^−1 isotype control (human IgG1), hu56di-SIRPα, hu56di-CV1, SIRPα-Fc IgG1 and AB6.12 IgG1, respectively. The results were shown in FIG. 6f, in which serial numbers of 1, 2, 3, 4 and 5 correspond to isotype control, hu56di-SIRPα, hu56di-CV1, SIRPα-Fc IgG1 and AB6.12 IgG1.

B1: hu56di-CV1: heterodimer of hu56di-Fc9 and CV1-Fc6, Group 14 (protein)
chain 1: QVQLVESGGGLVQPGGSLRLSCAASGKMSSRRCMAWFRQAPGKERERVAKLLTTSGSTYLADSVKGRFTISRDNSKNTVYLQMNSLRAEDTAVYYCAADSFEDPTCTLVTSSGAFQYWGQGTLVTVSSGAPQVQLVESGGGLVQPGGSLRLSCAASGKMSSRRCMAWFRQAPGKERERVAKLLTTSGSTYLADSVKGRFTISRDNSKNTVYLQMNSLRAEDTAVYYCAADSFEDPTCTLVTSSGAFQYWGQGTLVTVSSEPKSSDKTHTCPPCPAPELLGGPSVFLFPPKPKDTLMISRTPEVTCVVVDVSHEDPEVKFNWYVDGVEVHNAKTKPREEQYNSTYRVVSVLTVLHQDWLNGKEYKCKVSNKALPAPIEKTISKAKGQPREPQVYTLPPCRDELTKNQVSLWCLVKGFYPSDIAVEWESNGQPENNYKTTPPVLDSDGSFFLYSALTVDKSRWQQGNVFSCSVMHEALHNHYTQKSLSLSPGK
chain 2: EEELQIIQPDKSVLVAAGETATLRCTITSLFPVGPIQWFRGAGPGRVLIYNQRQGPFPRVTTVSDTTKRNNMDFSIRIGNITPADAGTYYCIKFRKGSPDDVEFKSGAGTELSVRAKPSGGGGSDKTHTCPPCPAPELLGGPSVFLFPPKPKDTLMISRTPEVTCVVVDVSHEDPEVKFNWYVDGVEVHNAKTKPREEQYNSTYRVVSVLTVLHQDWLNGKEYKCKVSNKALPAPIEKTISKAKGQPREPQVYTLPPSRDELTKNQVSLSCGVKGFYPSDIAVEWESNGQPENNYKTTPPVLDSDGSFKLASKLTVDKSRWQQGNVFSCSVMHEALHNHYTQKSLSLSPGK
binding to RBC: stronger binding to RBC than hu56di-SIRPα; also recorded: comparable binding to RBC with AB6.12 IgG1

Reference: patent publication US11529425B2, “Immunoconjugates comprising signal regulatory protein alpha” (DINGFU BIOTARGET CO., LTD., priority 2017, dated 2022)
